Experimental findings from patent US20240132624A1 (Ablynx, published 2024) are described below.

B1: T0263018B11 A33G (VHH, name in Kabat numbering)
VHH: EVQLVESGGGVVQPGGSLRLSCAASGFTFSSYGMYWVRQAPGKGLEWVSAISSGGGSTDYADSVKGRFTISRDNSKNTLYLQMNSLRPEDTALYYCAADTLYTSLTWYSYWGQGTLVTVSS
notes: FLAG3-His6 tagged
B2: T0263018B11 D58E (VHH, name in Kabat numbering)
VHH: B1 VHH with G33A, D59E
notes: FLAG3-His6 tagged
B3: T0263018B11 D58V (VHH, name in Kabat numbering)
VHH: B1 VHH with G33A, D59V
notes: FLAG3-His6 tagged
B4: T0263018B11 A33Q (VHH, name in Kabat numbering)
VHH: B1 VHH with G33Q
notes: FLAG3-His6 tagged
B5: T0263018B11 Y32N (VHH, name in Kabat numbering)
VHH: B1 VHH with Y32N, G33A
notes: FLAG3-His6 tagged
B6: T0263018B11 D58H (VHH, name in Kabat numbering)
VHH: B1 VHH with G33A, D59H
notes: FLAG3-His6 tagged
B7: T0263018B11 A33T (VHH, name in Kabat numbering)
VHH: B1 VHH with G33T
notes: FLAG3-His6 tagged
B8: T0263018B11 A33V (VHH, name in Kabat numbering)
VHH: B1 VHH with G33V
notes: FLAG3-His6 tagged
B9: T0263018B11 A93V (VHH, name in Kabat numbering)
VHH: B1 VHH with G33A, A97V
notes: FLAG3-His6 tagged
B10: T0263018B11 A94S (VHH, name in Kabat numbering)
VHH: B1 VHH with G33A, A98S
notes: FLAG3-His6 tagged
B11: T0263018B11 A33S (VHH, name in Kabat numbering)
VHH: B1 VHH with G33S
notes: FLAG3-His6 tagged
B12: T0263018B11 F27Y (VHH, name in Kabat numbering)
VHH: B1 VHH with F27Y, G33A
notes: FLAG3-His6 tagged
B13: T0263018B11 D58Y (VHH, name in Kabat numbering)
VHH: B1 VHH with G33A, D59Y
notes: FLAG3-His6 tagged
B14: T0263018B11 F27L (VHH, name in Kabat numbering)
VHH: B1 VHH with F27L, G33A
notes: FLAG3-His6 tagged
B15: T0263018B11 Y32M (VHH, name in Kabat numbering)
VHH: B1 VHH with Y32M, G33A
notes: FLAG3-His6 tagged
B16: T0263018B11 F27I (VHH, name in Kabat numbering)
VHH: B1 VHH with F27I, G33A
notes: FLAG3-His6 tagged
B17: T0263018B11 G26L (VHH, name in Kabat numbering)
VHH: B1 VHH with G26L, G33A
notes: FLAG3-His6 tagged
B18: T0263018B11 T28A (VHH, name in Kabat numbering)
VHH: B1 VHH with T28A, G33A
notes: FLAG3-His6 tagged
B19: T0263018B11 S52aD (VHH, name in Kabat numbering)
VHH: B1 VHH with G33A, S53D
notes: FLAG3-His6 tagged
B20: T0263018B11 A33P (VHH, name in Kabat numbering)
VHH: B1 VHH with G33P
notes: FLAG3-His6 tagged
B21: T0263018B11 T57Y (VHH, name in Kabat numbering)
VHH: B1 VHH with G33A, T58Y
notes: FLAG3-His6 tagged
B22: T0263018B11 S56M (VHH, name in Kabat numbering)
VHH: B1 VHH with G33A, S57M
notes: FLAG3-His6 tagged

Changes are numbered by the printed parent chain.

T1 sequence (chain, as listed by the source limits assumed, chain 1 of 2): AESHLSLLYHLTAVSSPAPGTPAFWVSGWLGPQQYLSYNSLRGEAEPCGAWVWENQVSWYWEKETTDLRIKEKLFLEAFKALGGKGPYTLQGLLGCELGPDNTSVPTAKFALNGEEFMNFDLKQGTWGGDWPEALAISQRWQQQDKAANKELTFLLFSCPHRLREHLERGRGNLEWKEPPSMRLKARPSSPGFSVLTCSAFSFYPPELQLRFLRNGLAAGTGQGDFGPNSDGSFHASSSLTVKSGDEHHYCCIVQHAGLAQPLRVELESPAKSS
T1 sequence (P61769 21-119 limits assumed, chain 2 of 2): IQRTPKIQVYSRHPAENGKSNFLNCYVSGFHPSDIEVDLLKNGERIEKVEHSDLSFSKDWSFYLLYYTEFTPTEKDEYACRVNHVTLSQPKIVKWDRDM

One assay addresses T1, human FcRn/b2M (human, UniProt P61769 21-119, biotinylated).
T1 construct: bought recombinant biotinylated protein (ACRO FCM-H82W4 or Immunitrack ITF01); also called hFcRn; hFcRn/hb2M
Briefly: SPR pH 6.0.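 Note: surface plasmon resonance kinetics at 25 °C, diluted periplasmic extracts injected over immobilized ligand surfaces, 120 s association then 600–3600 s dissociation, running buffer containing 150 mM NaCl.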
Experimental: (§1) All kinetic measurements have been performed on ProteOn XPR36 (BioRad Laboratories, Inc.), MASS-2 (Sierra sensors, Gmbh) or SPR-32 (Bruker Corporation). […] The phytip purified periplasmic extracts were diluted 1:10 in running buffer (CPA+150 mM NaCl+0.005% Tw20 at pH 5.5, pH 6.0 or pH 7.4) and injected over the ligand surfaces (association: 120 s at 45 μL/min; dissociation: 600s-3600 s at 45 μL/min). Experiments were carried out at 25° C.
In the case of B1, the koff (usually the first-order rate constant of dissociation) was 0.0013 s⁻¹.

For the molecule B2, the koff amounted to 0.0024 s⁻¹.

The molecule B3 yielded a dissociation rate constant (koff) of 0.015 s⁻¹.

As for B4, the off-rate (koff) worked out at 0.0018 s⁻¹.

Regarding B5, the koff worked out at 0.0025 s⁻¹.

B6 gave a koff of 0.012 s⁻¹.

On to B7, for which the koff was found to be 0.00011 s⁻¹.

B8 showed a koff of 0.00022 s⁻¹.

Regarding B9, the koff was 0.003 s⁻¹.

The molecule B10 came in with a koff of 0.0013 s⁻¹.

Consider B11, for which the off-rate constant (koff) is 0.0015 s⁻¹.

Consider B12, for which the koff was 0.0012 s⁻¹.

On to B13, for which the koff turned out to be 0.01 s⁻¹.

As for B14, the koff turned out to be 0.0013 s⁻¹.

The molecule B15 displayed a koff of 0.006 s⁻¹.

The target of a further assay is T2, cyno FcRn/b2M (cyno, UniProt Q8SPV9 24-297; Q8SPW0 21-119, biotinylated).
T2 construct: bought recombinant biotinylated protein (Immunitrack ITF05 or ACRO FCM-C82W5); also called cFcRn; cFcRn/cb2M
T2 sequence (Q8SPV9 24-297 limits assumed, chain 1 of 2): as the sequence (chain, as listed by the source limits assumed, chain 1 of 2) above, with N39D, E44Q, G99S, S189G, S190N, L217M, S269T counted along it
T2 sequence (Q8SPW0 21-119 limits assumed, chain 2 of 2): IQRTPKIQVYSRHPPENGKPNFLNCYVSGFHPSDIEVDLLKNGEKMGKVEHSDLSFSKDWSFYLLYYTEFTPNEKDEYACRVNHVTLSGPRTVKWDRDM
The experiment in a line: SPR pH 6.0.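 Note: surface plasmon resonance kinetics at 25 °C, diluted periplasmic extracts injected over immobilized ligand surfaces, 120 s association then 600–3600 s dissociation, running buffer containing 150 mM NaCl.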
Experimental: as §1
In turn, B1 returned a koff of 0.0011 s⁻¹.

B16: the koff was determined as 0.00036 s⁻¹.

As to B17, the koff was found to be 0.00087 s⁻¹.

Turning to B2, the koff came to 0.0012 s⁻¹.

B18 returned a koff of 0.00052 s⁻¹.

On to B3, for which the koff turned out to be 0.0025 s⁻¹.

B4 displayed a koff of 0.0027 s⁻¹.

In turn, B5 registered a koff of 0.0018 s⁻¹.

With B6, the koff came to 0.002 s⁻¹.

B7 registered a koff of 0.00011 s⁻¹.

For B8, the koff worked out at 0.00024 s⁻¹.

Molecule B9 gave an off-rate (koff) of 0.0021 s⁻¹.

Take B10: the koff worked out at 0.0011 s⁻¹.

On to B11, for which the dissociation rate constant (koff) amounted to 0.0013 s⁻¹.

The molecule B12 gave a koff of 0.00042 s⁻¹.

Take B19: the koff amounted to 0.00089 s⁻¹.

Molecule B13 gave a koff of 0.002 s⁻¹.

Turning to B14, the dissociation rate constant (koff) was determined as 0.001 s⁻¹.

As for B20, the koff was 0.00099 s⁻¹.

Take B15: the koff is 0.0025 s⁻¹.

Molecule B21 returned a koff of 0.00084 s⁻¹.

For the next assay, the target named is T1, human FcRn/b2M. The experiment in a line: SPR pH 7.4.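 Note: surface plasmon resonance kinetics, periplasmic extracts diluted 1:10 flowed over immobilized target at 25 °C, 120 s association then 600–3600 s dissociation, buffer with 150 mM NaCl.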
Experimental: as §1
B1 registered a koff of 0.034 s⁻¹.

Turning to B16, the koff came to 0.045 s⁻¹.

For the molecule B17, the koff was 0.041 s⁻¹.

On to B2, for which the koff was 0.08 s⁻¹.

For the molecule B18, the koff worked out at 0.046 s⁻¹.

Regarding B3, the koff turned out to be 0.14 s⁻¹.

Take B4: the koff stood at 0.065 s⁻¹.

On to B6, for which the off-rate (koff) was found to be 0.079 s⁻¹.

Consider B7, for which the koff was 0.0038 s⁻¹.

In turn, B8 registered a koff of 0.0082 s⁻¹.

B9 returned a koff of 0.15 s⁻¹.

B10 registered a koff of 0.046 s⁻¹.

Molecule B11 returned a koff of 0.059 s⁻¹.

In the case of B12, the off-rate constant (koff) is 0.054 s⁻¹.

Consider B19, for which the koff was determined as 0.044 s⁻¹.

Turning to B13, the koff was 0.089 s⁻¹.

The molecule B14 had a koff of 0.05 s⁻¹.

In turn, B20 registered an off-rate constant (koff) of 0.041 s⁻¹.

In the case of B21, the koff stood at 0.033 s⁻¹.

Another assay addresses T2, cyno FcRn/b2M. Briefly: SPR pH 7.4.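 Note: surface plasmon resonance kinetics, periplasmic extracts diluted 1:10 flowed over immobilized target at 25 °C, 120 s association then 600–3600 s dissociation, buffer with 150 mM NaCl.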
Experimental: as §1
B1 had a koff of 0.04 s⁻¹.

B16 yielded an off-rate (koff) of 0.031 s⁻¹.

B17 registered a koff of 0.054 s⁻¹.

With B2, the off-rate constant (koff) came out at 0.038 s⁻¹.

Molecule B18 returned a koff of 0.033 s⁻¹.

Turning to B3, the koff stood at 0.027 s⁻¹.

In turn, B4 displayed a dissociation rate constant (koff) of 0.13 s⁻¹.

B5: the koff came out at 0.083 s⁻¹.

On to B6, for which the koff came to 0.022 s⁻¹.

Take B7: the koff amounted to 0.0058 s⁻¹.

Take B8: the koff came out at 0.013 s⁻¹.

B9: the koff is 0.14 s⁻¹.

As for B10, the off-rate (koff) turned out to be 0.047 s⁻¹.

Regarding B11, the koff amounted to 0.065 s⁻¹.

Regarding B12, the koff amounted to 0.039 s⁻¹.

For B19, the koff turned out to be 0.051 s⁻¹.

On to B13, for which the koff came out at 0.025 s⁻¹.

B14: the koff was 0.048 s⁻¹.

The molecule B20 yielded a koff of 0.045 s⁻¹.

Consider B15, for which the koff came to 0.18 s⁻¹.

As for B21, the off-rate (koff) was 0.035 s⁻¹.

Another assay deals with T1, human FcRn/b2M. The experiment in a line: SPR off-rate; pH 7.4 vs pH 6.0.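 Note: surface plasmon resonance with diluted periplasmic extracts flowed over ligand surfaces, 120 s association and 600–3600 s dissociation at 25 °C, running buffer containing 150 mM NaCl.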
Experimental: as §1
In the case of B1, the “kd ratio pH 7.4/6.0” value amounted to 26.

Regarding B2, the “kd ratio pH 7.4/6.0” value is 33.

On to B3, for which the “kd ratio pH 7.4/6.0” value was found to be 9.

As for B4, the “kd ratio pH 7.4/6.0” value came out at 36.

As to B6, the “kd ratio pH 7.4/6.0” value came to 7.

As to B7, the “kd ratio pH 7.4/6.0” value was determined as 36.

As for B8, the “kd ratio pH 7.4/6.0” value came to 37.

On to B22, for which the “kd ratio pH 7.4/6.0” value was determined as 31.

As to B9, the “kd ratio pH 7.4/6.0” value came out at 50.

Take B10: the “kd ratio pH 7.4/6.0” value was found to be 35.

As to B11, the “kd ratio pH 7.4/6.0” value was found to be 39.

B12: the “kd ratio pH 7.4/6.0” value is 45.

On to B13, for which the “kd ratio pH 7.4/6.0” value was found to be 9.

Turning to B14, the “kd ratio pH 7.4/6.0” value was found to be 38.

The next assay addresses T2, cyno FcRn/b2M. The experiment in a line: SPR off-rate; pH 7.4 vs pH 6.0.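 Note: surface plasmon resonance with diluted periplasmic extracts flowed over ligand surfaces, 120 s association and 600–3600 s dissociation at 25 °C, running buffer containing 150 mM NaCl.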
Experimental: as §1
As to B1, the “kd ratio pH 7.4/6.0” value was 36.

Take B2: the “kd ratio pH 7.4/6.0” value was found to be 32.

With B3, the “kd ratio pH 7.4/6.0” value amounted to 11.

B4: the “kd ratio pH 7.4/6.0” value came to 48.

For the molecule B6, the “kd ratio pH 7.4/6.0” value amounted to 11.

On to B7, for which the “kd ratio pH 7.4/6.0” value is 54.

As to B8, the “kd ratio pH 7.4/6.0” value is 53.

In the case of B9, the “kd ratio pH 7.4/6.0” value amounted to 67.

As for B10, the “kd ratio pH 7.4/6.0” value came out at 43.

For the molecule B11, the “kd ratio pH 7.4/6.0” value was 50.

Turning to B12, the “kd ratio pH 7.4/6.0” value was determined as 93.

For B13, the “kd ratio pH 7.4/6.0” value is 12.

Consider B14, for which the “kd ratio pH 7.4/6.0” value was determined as 48.
